Measurements published in patent publication US20190359687A1 (Bayer, published 2019).
Positions count from the first letter of the chain named.

T1: purified human glycophorin A protein (Sigma, cat # G5017) (human, UniProt P02724 20-150)
T1 construct: mature; also called Sigma hGPA; Sigma GPA
T1 sequence (looked up): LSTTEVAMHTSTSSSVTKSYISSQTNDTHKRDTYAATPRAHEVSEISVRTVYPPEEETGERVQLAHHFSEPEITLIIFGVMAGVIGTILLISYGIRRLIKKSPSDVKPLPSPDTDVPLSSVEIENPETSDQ

T2: human glycophorin A in the red blood cell membrane (human, UniProt P02724 20-150)
T2 construct: whole, on cells; used for intact RBC, isolated RBC membranes and transfected cells; the assay field tells which; also called GPA; hGPA
T2 sequence (looked up): T1 sequence (looked up)

T3: Rhesus monkey glycophorin A on Rhesus monkey red blood cells (Rhesus monkey, UniProt A0A1D5Q349 20-150)
T3 construct: whole, on cells; also called Rhesus RBC; monkey GPA
T3 sequence: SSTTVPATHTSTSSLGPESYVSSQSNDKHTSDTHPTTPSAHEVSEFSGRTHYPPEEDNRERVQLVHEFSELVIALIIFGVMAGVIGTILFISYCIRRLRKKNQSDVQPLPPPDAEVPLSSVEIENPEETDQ

T4: human glycophorin A on human red blood cells or red blood cell membranes (human, UniProt P02724 20-150)
T4 construct: whole, on cells; also called hRBC; human RBC membranes
T4 sequence (looked up): T1 sequence (looked up)

B1: Hu6C12-24 (antibody, V domains shown)
VH: EVQLVQSGAEVKKPGASVKVSCKASGYTFTTYTIHWVRQAPGQGLEWIGYINPSSDYTRYNPKFKDRVTLTTDKSTSTAYMELRSLRSDDTAVYYCQTGTRDYWGQGTTVTVSS
VL: DIQLTQSPSFLSASVGDRVTITCSAASSVSYIYWFQQKPGKAPKLLIYSTSTLPSGVPSRFSGSGSGTEYTLTISSLQPEDFATYYCHQRNSFPFTFGQGTKLEIK
notes: IgG format; VH.1g + Vk.1b
B2: TPP-7776, affinity matured 6C12 Fab (Fab, V domains shown)
VH: B1 VH with T33A, I48M, D56G, D66G, L70M, T72R
VL: B1 VL with S24R, A26S, S30R, S49A, P54R, F95Y
notes: Tested as Fab
B3: TPP-7782, affinity matured 6C12 Fab (Fab, V domains shown)
VH: B1 VH with I48M, D56G, D66G, L70M, T72R
VL: B1 VL with S24R, A26S, S30R, S49A, T52F, L53R, P54Q, F95Y
notes: Tested as Fab
B4: TPP-7778, affinity matured 6C12 Fab (Fab, V domains shown)
VH: B1 VH with T33A, I48M, D56G, D66H, L70M, T72R
VL: B1 VL with S24R, A26S, S30R, S49A, P54Q, F95Y
notes: Tested as Fab
B5: TPP-7781, affinity matured 6C12 Fab (Fab, V domains shown)
VH: B1 VH with I48M, S54K, D56G, Y57W, D66G, L70M, T72R
VL: B1 VL with S24R, A26S, S30R, S49A, P54Q, F95Y
notes: Tested as Fab
B6: TPP-7787, affinity matured 6C12 Fab (Fab, V domains shown)
VH: B1 VH with T33A, I48M, D56G, D66G, L70M, T72R, Q97W
VL: B1 VL with S24R, A26S, S49A, L53R, P54Q, F95Y
notes: Tested as Fab
B7: TPP-7793, affinity matured 6C12 Fab (Fab, V domains shown)
VH: B1 VH with T31R, I48M, D56G, D66G, L70M, T72R, Q97W
VL: B1 VL with S24R, A26S, S49A, P54Q, F95Y
notes: Tested as Fab
B8: TPP-7777, affinity matured 6C12 Fab (Fab, V domains shown)
VH: B1 VH with I48M, D56G, Y57W, D66G, L70M, T72R, Q97W, T100R
VL: B1 VL with S24R, A26S, S49A, L53R, P54Q, F95Y
notes: Tested as Fab
B9: TPP-7796, affinity matured 6C12 Fab (Fab, V domains shown)
VH: B1 VH with I48M, S54K, D56G, Y57W, D66G, L70M, T72R
VL: B1 VL with S24R, A26S, S49A, P54Q, F95Y
notes: Tested as Fab
B10: TPP-7788, affinity matured 6C12 Fab (Fab, V domains shown)
VH: B1 VH with I48M, S54K, D56G, Y57W, D66G, L70M, T72R
VL: B1 VL with S24R, A26S, S49A, T52F, L53R, P54Q, F95Y
notes: Tested as Fab
B11: TPP-7789, affinity matured 6C12 Fab (Fab, V domains shown)
VH: B1 VH with I48M, D56G, D66H, L70M, T72R, Q97W
VL: B1 VL with S24R, A26S, S30R, S49A, P54Q, F95Y
notes: Tested as Fab
B12: TPP-7795, affinity matured 6C12 Fab (Fab, V domains shown)
VH: B1 VH with I48M, S54K, D56G, Y57W, D66G, L70M, T72R
VL: B1 VL with S24R, A26S, S49A, T52F, P54Q, F95Y
notes: Tested as Fab

What follows are binders tested against T1, purified human glycophorin A protein … (assay: ELISA, IgG).

Row | EC50 [nM] | Binder
1 | 0.282 | B1

What follows are binders tested against T5, Cynomolgus monkey glycophorin A on Cynomolgus monkey red blood cells (Cynomolgus monkey) (assay: FACS, RBC Cy01).
T5 construct: whole, on cells; also called Cyno RBC; Cyno GPA
Protocol: (§1) The binding of the humanized variants to intact red blood cells (RBC) from humans (Hu01 to 03; 3 individuals), Rhesus monkey (Rh01 to 03; 3 individuals) and Cynomolgus monkey (Cy01 to 02; 2 individuals) was measured by fluorescence activated cell sorting (FACS).

Row | fluorescence intensity | Binder
2 | 1660 | B1

Each binder was assayed against T5, Cynomolgus monkey glycophorin A on … (assay: FACS, RBC Cy02).
Protocol: as §1

Row | fluorescence intensity | Binder
3 | 1770 | B1

Each binder was assayed against T2, human glycophorin A in the red blood … (assay: FACS, RBC Hu01).
Protocol: as §1

Row | fluorescence intensity | Binder
4 | 2250 | B1

What follows are binders tested against T2, human glycophorin A in the red blood … (assay: FACS, RBC Hu02).
Protocol: as §1

Row | fluorescence intensity | Binder
5 | 1850 | B1

These binders were tested against T2, human glycophorin A in the red blood … (assay: FACS, RBC Hu03).
Protocol: as §1

Row | fluorescence intensity | Binder
6 | 2100 | B1

What follows are binders tested against T3, Rhesus monkey glycophorin A on Rhesus … (assay: FACS, RBC Rh01).
Protocol: as §1

Row | fluorescence intensity | Binder
7 | 2330 | B1

The binders below were run against T3, Rhesus monkey glycophorin A on Rhesus … (assay: FACS, RBC Rh02).

Row | fluorescence intensity | Binder
8 | 2540 | B1

What follows are binders tested against T3, Rhesus monkey glycophorin A on Rhesus … (assay: FACS, RBC Rh03).
Protocol: as §1

Row | fluorescence intensity | Binder
9 | 2370 | B1

These binders were tested against T4, human glycophorin A on human red blood … (assay: SPR (Biacore), Fab on human RBC membranes;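 also: human RBC membranes captured on an L1 sensor chip, Fab fragments passed over as analyte, binding kinetics read by surface plasmon resonance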).
Protocol: (§2) Kinetic analysis of the antibody binding to human red blood cell membranes was also performed using surface plasmon resonance (SPR) using a Biacore instrument. In this assay membranes prepared from human red blood cells were attached to a L1 sensor matrix and antibodies were flowed over the RBC membranes.
(§3) The binding kinetics of the affinity matured Fab antibodies was also measured.

Row | Kd [nM] | koff [s⁻¹] | kon [M⁻¹ s⁻¹] | Binder
10 | 0.0829 | 0.00097 |  | B2
11 | 0.0295 | 0.000413 |  | B3
12 | 0.011 | 0.0011 |  | B4
13 | 0.0289 | 0.000547 |  | B5
14 | 0.0222 | 0.000139 | 6.25e+06 | B6
15 | 0.0246 | 0.000504 |  | B7
16 | 0.0499 | 0.000371 | 7.44e+06 | B8
17 | 0.111 | 0.00238 |  | B9
18 | 0.136 | 0.000413 | 3.03e+06 | B10
19 | 0.00799 | 0.000128 |  | B11

What follows are binders tested against T4, human glycophorin A on human red blood … (assay: SPR (Biacore), Fab on human RBC membranes; T½ = 0.69/kd).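 As to Kd: human RBC membranes captured on an L1 sensor chip, Fab fragments passed over as analyte, binding kinetics read by surface plasmon resonance.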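 As to koff: human RBC membranes captured on an L1 sensor chip, Fab fragments passed over as analyte, binding kinetics read by surface plasmon resonance.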
Protocol: as §2, §3

Row | Estimated T½ [min] | Binder
20 | 12 | B2
21 | 28 | B3
22 | 10 | B4
23 | 21 | B5
24 | 83 | B6
25 | 23 | B7
26 | 31 | B8
27 | 5 | B9
28 | 28 | B10
29 | 90 | B11

Each binder was assayed against T6, Cynomolgus monkey glycophorin A on Cynomolgus monkey red blood cells or red blood cell membranes (Cynomolgus monkey) (assay: Fab 7 ug/ml on intact cyno RBC, unbound Fab by ELISA; pre-dilution).
T6 construct: whole, on cells; also called Cyno RBC; Cynomolgus monkey RBC membranes

Row | percentage of input antibody bound [%] | Binder
30 | 94 | B3
31 | 73 | B12
32 | 81 | B4
33 | 86 | B5
34 | 72 | B7
35 | 68 | B9

Each binder was assayed against T4, human glycophorin A on human red blood … (assay: Fab 7 ug/ml on intact human RBC, unbound Fab by ELISA; pre-dilution).
Protocol: (§4) The binding of affinity matured Fab antibodies to intact human RBC was also measured. Human RBC were isolated from fresh anti-coagulated normal human blood by centrifugation through a ficol gradient and washing in PBS buffer. RBC diluted to 1/10th of normal hematocrit were incubated with purified Fab antibodies at a final concentration of 7 ug/ml for 1 hour at room temperature on a rotating shaker after which a sample was taken and the RBC were pelleted by centrifugation and the supernatant was collected. The remaining RBC suspension was diluted 200-fold in PBS buffer and incubated for a total of 2 hours at room temperature on a rotating shaker and samples were removed at 0, 5 min, 20 min, 1 h and 2 h and the RBC pelleted and the supernatant collected. The amount of Fab in the supernatants was then measured using an ELISA assay and the results used to calculate the percentage of the input Fab that was bound to the RBC. […] The percentage that remains bound after 200-fold dilution of the RBC suspension is an indication of the overall strength of the binding to human RBC.

Row | percentage of input antibody bound [%] | Binder
36 | 99 | B3
37 | 95 | B12
38 | 95 | B4
39 | 97 | B5
40 | 98 | B7
41 | 96 | B9

Each binder was assayed against T4, human glycophorin A on human red blood … (assay: SPR (Biacore), Fab on human RBC membranes; * not accurate, instrument limit).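 As to Kd: human RBC membranes captured on an L1 sensor chip, Fab fragments passed over as analyte, binding kinetics read by surface plasmon resonance.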
Protocol: as §2, §3

Row | kon [M⁻¹ s⁻¹] | Binder
42 | 1.17e+07 | B2
43 | 1.4e+07 | B3
44 | 1e+08 | B4
45 | 1.89e+07 | B5
46 | 2.05e+07 | B7
47 | 2.15e+07 | B9
48 | 1.61e+07 | B11

These binders were tested against T6, Cynomolgus monkey glycophorin A on … (assay: Fab on intact cyno RBC, unbound Fab by ELISA; 0 min after 200-fold dilution).
Protocol: (§5) The binding of affinity matured Fab antibodies to intact Cynomolgus monkey RBC was measured. Cynomolgus monkey RBC were isolated from fresh anti-coagulated blood by centrifugation through a ficol gradient and washing in PBS buffer. RBC diluted to 1/10th of normal hematocrit were incubated with the Fab at a final concentration of 7 ug/ml for 1 hour at room temperature on a rotating shaker after which a sample was taken and the RBC were pelleted by centrifugation and the supernatant was collected. The remaining RBC suspension was diluted 200-fold in PBS buffer and incubated for a total of 2 hours at room temperature on a rotating shaker and samples were removed at 0, 5 min, 20 min, 1 h and 2 h and the RBC pelleted and the supernatant collected. […] The amount of Fab in the supernatants was then measured using an ELISA assay and the results used to calculate the percentage of the input Fab that was bound to the RBC.

Row | percentage of input antibody bound [%] | Binder
49 | 88 | B3
50 | 56 | B4
51 | 40 | B5
52 | 58 | B7
53 | 56 | B9

What follows are binders tested against T6, Cynomolgus monkey glycophorin A on … (assay: Fab on intact cyno RBC, unbound Fab by ELISA; 5 min after 200-fold dilution).

Row | percentage of input antibody bound [%] | Binder
54 | 68 | B3
55 | 51 | B12
56 | 54 | B4
57 | 34 | B5
58 | 58 | B7
59 | 43 | B9

These binders were tested against T4, human glycophorin A on human red blood … (assay: Fab on intact human RBC, unbound Fab by ELISA; 0 min after 200-fold dilution).
Protocol: as §4

Row | percentage of input antibody bound [%] | Binder
60 | 95 | B3
61 | 86 | B12
62 | 84 | B4
63 | 93 | B5
64 | 96 | B7
65 | 82 | B9

The binders below were run against T4, human glycophorin A on human red blood … (assay: Fab on intact human RBC, unbound Fab by ELISA; 5 min after 200-fold dilution).
Protocol: as §4

Row | percentage of input antibody bound [%] | Binder
66 | 83 | B3
67 | 74 | B12
68 | 76 | B4
69 | 69 | B5
70 | 92 | B7
71 | 48 | B9

Each binder was assayed against T6, Cynomolgus monkey glycophorin A on … (assay: Fab on intact cyno RBC, unbound Fab by ELISA; 20 min after 200-fold dilution).

Row | percentage of input antibody bound [%] | Binder
72 | 59 | B3
73 | 39 | B12
74 | 48 | B4
75 | 32 | B5
76 | 51 | B7
77 | 21 | B9

The binders below were run against T6, Cynomolgus monkey glycophorin A on … (assay: Fab on intact cyno RBC, unbound Fab by ELISA; 60 min after 200-fold dilution).
Protocol: as §5

Row | percentage of input antibody bound [%] | Binder
78 | 57 | B3
79 | 29 | B12
80 | 36 | B4
81 | 24 | B5
82 | 51 | B7
83 | 7 | B9

The binders below were run against T4, human glycophorin A on human red blood … (assay: Fab on intact human RBC, unbound Fab by ELISA; 20 min after 200-fold dilution).
Protocol: as §4

Row | percentage of input antibody bound [%] | Binder
84 | 76 | B3
85 | 63 | B12
86 | 66 | B4
87 | 61 | B5
88 | 86 | B7
89 | 12 | B9

The binders below were run against T4, human glycophorin A on human red blood … (assay: Fab on intact human RBC, unbound Fab by ELISA; 60 min after 200-fold dilution).

Row | percentage of input antibody bound [%] | Binder
90 | 79 | B3
91 | 63 | B12
92 | 66 | B4
93 | 64 | B5
94 | 85 | B7
95 | 15 | B9

The binders below were run against T6, Cynomolgus monkey glycophorin A on … (assay: Fab on intact cyno RBC, unbound Fab by ELISA; 120 min after 200-fold dilution).

Row | percentage of input antibody bound [%] | Binder
96 | 52 | B3
97 | 22 | B12
98 | 27 | B4
99 | 19 | B5
100 | 46 | B7
101 | 0 | B9

Each binder was assayed against T4, human glycophorin A on human red blood … (assay: Fab on intact human RBC, unbound Fab by ELISA; 120 min after 200-fold dilution).

Row | percentage of input antibody bound [%] | Binder
102 | 77 | B3
103 | 63 | B12
104 | 64 | B4
105 | 59 | B5
106 | 86 | B7
107 | 13 | B9
